# Assay results published in the supplement of paper PMC9170038.
# System: MS2 coat protein
# Assay: apparent KD of MS2 coat protein; designed switch direction (-1 OFF switch, 1 ON switch): -1; higher = weaker reporter binding
# Summary of the method: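 Designed RNA switches with common flanks were made on Illumina chips by stalled E. coli RNA polymerase. Titration with SNAP-549-labelled MS2 coat protein doubled from 0.7 or 1.5 nM up to 3 µM. Apparent KD is each design's median over clusters after curve-fitting normalised fluorescence.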
# [1] = input ligand: microRNA oligo, concentration not stated
# [2] = Eterna round: R95, input ligand: FMN 200 uM
# [3] = Eterna round: R95, input ligand: microRNA oligo, concentration not stated
# [4] = Eterna round: R95, input ligand: none
Sequence,apparent KD of MS2 coat protein (input ligand: FMN 200 uM),apparent KD of MS2 coat protein (input ligand: none),apparent KD of MS2 coat protein [1],apparent KD of MS2 coat protein [2],apparent KD of MS2 coat protein [3],apparent KD of MS2 coat protein [4]
"UUCAUGUGAGGAUAUGUGCAAGACCUAGAGAUUGGGUUUUCACAGAAGGCACAUGAGGAUCACCCAUGUGUUAC [Eternabot (L2) Solution 23] (Eterna round: R97, puzzle: Exclusion 4)",232 nM,126 nM,,,,
"CAAUGACAUGAGGAUCACCCAUGUGAGGAUAUGGAGCGAGACCGCGCGGUCGCGUACACCAGAAGGCGCAGGCG [1st #66] (Eterna round: R97, puzzle: Exclusion 1)",89.3 nM,37.9 nM,,,,
"UUACUACAUGUAGGAUAUGCGUGGCGAAGCUAUGCAGAAGGACAUGAGGAUCACCCAUGUUUUAGCGUCUGCGUACAGAUGCGU [JL ENG1 1.47] (Eterna round: R96, puzzle: Exclusion NG 1)",,,14.8 nM,,,
"UUAGAUUGAGGAUAUACAUGAGGAUCACCCAUGUCGAUACCAAUGGUGUUGACCGUCAGUAGAAGGCGAAUUGA [Eternabot (L1) Solution 87] (Eterna round: R97, puzzle: Exclusion 3)",163 nM,123 nM,,,,
"GUCAGCUCGUGAGGAUAUGUAUAUACAUGAGGAUCACCCAUGUUAGAUCUGCUUCGGCUGUAUAUACAGAAGGCACGAGCUGAC [ENG2/16-A1] (Eterna round: R96, puzzle: Exclusion NG 2)",504 nM,308 nM,382 nM,,,
"AUUAACAUGUUGAUCAAAUACAUGAGGAUCACCCAUGUAUGCUUUUUGCUCGAUAAGAUCAACUAAUUAAUUAAUUA [StovNew/1-B] (Eterna round: R97, puzzle: Sensor, turn-off variant 1)",13.9 nM,12.6 nM,,,,
"CCAGACGUUGUAGGAUAUCUGAAAGGAAGUGUAAGAGAAGGAUAGUGUCUGUAAAACAUGAGGAUCACCCAUGUGGGCGCAUCC [PowerStrip EXNG 1.30] (Eterna round: R96, puzzle: Exclusion NG 1)",,,16.7 nM,,,
"ACUUAUAGAGGAUAUACAGAAUAUUACAUGAGGAUCACCCAUGUUCUUCAAUGUAUAUAUGUAGAAGGCUAAGGAU [Mat - Exclusion 5 - JL Mod - D6] (Eterna round: R97, puzzle: Exclusion 5)",299 nM,89.9 nM,,,,
"GAGUGCUGAGGAUAUACAUGAGGAUCACCCAUGUACUUCAGCUAGGAGACUAGCAUUGGUAGAAGGCAGUACUC [Mod of lroppy 22 - Jieux - Exclusion 3] (Eterna round: R97, puzzle: Exclusion 3)",20.7 nM,14.2 nM,,,,
"GCAGCAACUCUAAUCAAAUCAACAUGAGGAUCACCCAUGUCUCAGGAUAUGGUCUGGAUUACAGGCCAGAAGGGAGAAAGCUGC [Eli exng3 - 048] (Eterna round: R96, puzzle: Exclusion NG 3)",16.5 nM,16.6 nM,13.9 nM,,,
"UCACGGGAUUGAGGAUAUAUAUGAAUUUUUUUUAUAGAAGGCAAAAUGUUAGAUUAUUCACUAUACAUGAGGAUCACCCAUGUU [JR_ExcBG1_Sub075] (Eterna round: R96, puzzle: Exclusion NG 1)",,,20.3 nM,,,
GUUUGCGCAGGAUAUACAUGAGGAUCACCCAUGUGAGAGAAAUAAGUGAGGAAGAAAAGUAGAAGGGCGUGACG [Mat - Exclusion 3 - Mod of Salish D71] (puzzle: Exclusion 3),,,,171 nM,34 nM,42.8 nM
"GAAAAUGUGGAGGAUAUCGACUUCGAAAGAAGUCGAGAAGGCCACACAUGAGGAUCACCCAUGUGUGCCUUAAA [Omei Ex6 H3] (Eterna round: R97, puzzle: Exclusion 6)",23.9 nM,12 nM,,,,
"UAAGUGUCAGGAUAUACAUGAGGAUCACCCAUGUGCCUCGCUACGGCCAGGCUCCCGUGUAGAAGGGAUCGUAA [Eternabot (Original) Solution 23] (Eterna round: R97, puzzle: Exclusion 3)",110 nM,61.8 nM,,,,
"AUAAUGUCAGGAUAUCAGACGUACAGCUUCGGCUGUACGUCUGAGAAGGGACAUGAGGAUCACCCAUGUGAUUA [E4/3-A1] (Eterna round: R97, puzzle: Exclusion 4)",224 nM,940 nM,,,,
"AACAUGAGGAUCACCCAUGUGGGUCCUCUGUGGCAGCGAGACGAGGAUAUCAAUGGAGGGCCAGGUGAGAAGGUGUACGAUCAU [Eternabot solution 28] (Eterna round: R96, puzzle: Exclusion NG 3)",183 nM,386 nM,192 nM,,,
GGAUCGAAUGUCAGGAUAUACCACUGGAUACAGUGGUAGAAGGGACAUGAGGAUCACCCAUGUGUUAUCGAUCC [Fiskers BMX 4 - 56] (puzzle: Brourd's mod of Exclusion 4),,,,,36.5 nM,

Sequence,apparent KD of MS2 coat protein (input ligand: FMN 200 uM),apparent KD of MS2 coat protein (input ligand: none),apparent KD of MS2 coat protein [1],apparent KD of MS2 coat protein [2],apparent KD of MS2 coat protein [3],apparent KD of MS2 coat protein [4]
"AGUACUAACACGAAAGUGUUAGUACAAUAAGCUUGUGAAACAUGAGGAUCACCCAUGUCCUCGUAAGCUCGUCUUAU [salish99_TOv2_r3_048] (puzzle: Sensor v3, turn-off variant 2)",,,,40 nM,620 nM,37.7 nM
"AGUUGUGUCAAGGAUAUGCAGUCUAACGACGGAGCAGAAGGUGACACUUGAGGAUCACCCAAGUGAACCAAAAU [Bisoreis] (Eterna round: R97, puzzle: Exclusion 6)",393 nM,57.5 nM,,,,
"UACUGGACAGGAUAUGUUCUUGAGCACUUGAGGAUCACCCAAGUCAUCAAGAACUCAGGCACAGAAGGGUUUAUGA [salish99_ex5_r4_004] (Eterna round: R97, puzzle: Exclusion 5)",22 nM,15.4 nM,,,,
"GAACAGGUAGGAUAUACUGGACGCGACAUGAGGAUCACCCAUGUCCUCGGCAUAGGCGCUGUAGAAGGGCCUAAAA [Eternabot (Original) Solution 29] (Eterna round: R97, puzzle: Exclusion 5)",29.9 nM,30.2 nM,,,,
"AGAGAGUCAGGAUAUGACGAAGAGAACAUGAGGAUCACCCAUGUUGCUUCGUUUUUAUCGUCAGAAGGGACGAACU [JR_Ex5_Sub088] (Eterna round: R97, puzzle: Exclusion 5)",13.8 nM,13.9 nM,,,,
"GUGCAGCUAGGAUAUACCGAAUGGGCCGAGCCGAAAAUAUUACAUGAGGAUCACCCAUGUAGAAGGAGCCAAUU [Eternabot (Original) Solution 22] (Eterna round: R97, puzzle: Exclusion 2)",64.5 nM,34.7 nM,,,,
CUUCGUAUAGAGGAUAUAGGUUACUUCGGUAUCCUAGAAGGCUGUACAUGAGGAUCACCCAUGUACUUCAGAUC [Exclusion 6 - B - 13:a] (puzzle: Exclusion 6),,,,,12.2 nM,
"CCGAUGUGAGGAUAUACACUAGGGUGCGUAUACGUGAGCAAACAUGAGGAUCACCCAUGUAGAAGGCACUGAAA [Eternabot (Original) Solution 50] (Eterna round: R97, puzzle: Exclusion 2)",117 nM,30.9 nM,,,,
"AGCUGUGGCCGAGGAUAUGACAUGAGGAUCACCCAUGUACCAGAUUAGGCCUGGUAACAGGCUCAUCAGAAGGCGGUCUCAGCA [Eli eng2 - 016] (Eterna round: R96, puzzle: Exclusion NG 2)",13.5 nM,14.8 nM,10.7 nM,,,
"CUGAGCAGACGGAGAUCCAACAUGAGGAUCACCCAUGUCUCAAAAGCUUCUUGCUCGUCUUAUCCUCCUCUGUUCUC [Maeronqu] (puzzle: Sensor v3, turn-off variant 1)",,,,36.8 nM,215 nM,33.1 nM
"UUCCUCUCUUCUCUGUCUCACAUGAGGAUCACCCAUGUAACAUAGGAUAUGCUUGGUAUUUAAAUGCAGAAGGAUGUUAGUAUU [JR_ExcNG3_Sub082] (Eterna round: R96, puzzle: Exclusion NG 3)",82.9 nM,30.2 nM,22.4 nM,,,
"GAAUAGCGAGGAUAUACAUGAGGAUCACCCAUGUGAUCCUUAGGCUGUUCAAGCCUAUGUAGAAGGCGCAAAUU [jl-ex3.4.56 ViennaUCT mod] (Eterna round: R97, puzzle: Exclusion 3)",86.2 nM,335 nM,,,,
"UAAAUUGGGUAGGAUAUGUUUGUUUAAAGAGCCACAGAAGGACCCACAUGAGGAUCACCCAUGUAUCACCUAUG [Eternabot (L2) Solution 60] (Eterna round: R97, puzzle: Exclusion 6)",33.6 nM,27.1 nM,,,,
"UAUUAGCAAGUGAGAUCCCACAUGAGGAUCACCCAUGUGCUCGUCUUAUAACGUACUGUGAGGAAACUCACGGUACG [Sensor-V1 #83] (Eterna round: R97, puzzle: Sensor, turn-off variant 1)",47.6 nM,51.2 nM,,,,
GGUUGGUGAGGAUAUACAUGAGGAUCACCCAUGUGAGAGAAAGAAGUGAGGAAGAAAAGUAGAAGGCGCUGACG [salish99_ex3_r3_054] (puzzle: Exclusion 3),,,,87.1 nM,40.4 nM,54.2 nM
UAAAAGUGAGGAUAUACAUUAAGGUAAGUCCGGAUGCGAAGACAUGAGGAUCACCCAUGUAGAAGGCACACAAA [Aredge] (puzzle: Exclusion 2),,,,,32.1 nM,
"UGAUCUUUUGUUAGGAUAUGCUGUUUUUUUUUUCAGCAGAAGGGACAUGAGGAUCACCCAUGUUUUGUCAUAAA [Magic-06] (Eterna round: R96, puzzle: Brourd's mod of Exclusion 4)",45 nM,33 nM,24.1 nM,,,
